Measured values from the domain aggregation screens of Martell et al. (2025).

test: soluble fraction after stress (log2 fold change); higher = more stays soluble; pooled small domains, quantitative proteomics; conditions: stress: pH 4
In short: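 Values are log2 fold changes, and higher ones mean more of the domain stayed soluble. Each fold change reflects the soluble amount of a domain after acid stress and is taken as a measure of aggregation propensity. The stress was pH 4, applied to pooled custom libraries of small protein domains analysed by high-throughput quantitative proteomics.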

Going from “HMQELNDQQRLAILNEWNNRATNPPSLLELVRVAFPDAEGADGRSWHGKKVKEFLSTRQIKARAS” to “HMQENFYMILESEERRVLDVLVADQPESVATFLKLVSPFPNYKIILEHINEKALDFYEETVI”, the “soluble fraction (log2)” value falls from -0.282 to -0.666.

First: HMQESTILPAQKSAISSLATSAGFSSENLKRYLLQNYGVDLKDLTRSQGAEVIKAFQSGNVSKP
Second: HMQETPAMLAMKELPTEDEQRIYMMLQEDYDSVLLVKTIRNAFSQNPQLTRQQLLPIILTWLMT
The “soluble fraction (log2)” value of the first is higher: 0.246 for the first, -1.08 for the second.

First: HMQGATVYIKSDDIGKTTNEQGSFNFDKLKKNRYTLEISFIGYETKNLQAYTDRENIVQLNRKS
Second: HMQGEVPYSQFLTEVDRGDVQSVVIEGNNISGFYKNSSTAFTVVAPDDPKLVERLMEQGVEVKARPV
The “soluble fraction (log2)” value of the first is lower: -0.527 for the first, at least 0.43 for the second.

First: HMQGEVVTNRSVIDMSRAGLSADIIRAKILRSDTNFDVTAKALIELKESGVPDDIIALMLERADS
Second: HMQGIPVTVTAERANLRSGPGTSFDKLGQVVQGDVLTLLEVQNDWYKVKTAEGKTAFVAAYLVNSP
The “soluble fraction (log2)” value of the first is lower: -0.218 for the first, 0.0179 for the second.

“HMQGQADFTQGIANFTQYPVGSRITVFTLEGRRVAVVEIGKDGTAQLDMRNKPAGVYIVNTGKQSFKWLK” and “HMQGRIYLNPDLAEKLRAQYAAYPHWSYLLHTENLGALVRKTESLGPMPSYSTILRYMHANDMRKRNKP” are within 0.2 log units of each other in “soluble fraction (log2)” value: -0.0678 for the first, -0.149 for the second.

“HMQGVNLTETEKNFIAQVLSPLLKQGQSLYQIRTNHPEIKLSVKTLYTYIESGIFKESGINNFSLRRQ” and “HMQILNVFSKHGIKPISPQIGDKFDPQLHEAMFEAPVPGTKAGDIIEVSSEGFMLYDRLLRPAHVGVSSN” are within 0.2 log units of each other in “soluble fraction (log2)” value: -0.319 for the first, -0.138 for the second.

Going from “HMQILPAFLPENPELRARLANHSLEELTEILKQYKTLHNSTDVDTVKRAIRAIEIEEYYAVHPV” to “HMQINLKQSSDEELVKIITVQVHHYEPHTVKAAEAEIERRGIDKMRMAHLVKKVAQENTAVQEIQD”, the “soluble fraction (log2)” value rises from -0.635 to 0.134.

First: HMQISDDSELIKIVDNILANSQKQIDDYHNGKTNLFGFFVGQVMKETKGKANPVKVNEILKDKL
Second: HMQISDSSLIAKTVATVILENPEAVSDYLGGKHSVVRFMVGQIMKKTQGKANPKMATEMLETALNDL
The “soluble fraction (log2)” value of the first is lower: 0.102 for the first, 0.352 for the second.

Going from “HMQISDTTELSTLITKVLSEQSDALVDFKNPKKQKQVIGYLTGQVLRASQGKANPGLVRSLLEEQLSALDS” to “HMQISMQNIASVKIDDLSDEQIQEFSTKYTAAGYSFPDVENVAKQKGMPSSEIEKLRQRVLTAQNTQEK”, the “soluble fraction (log2)” value falls from 0.0677 to -0.346.

“HMQISSSEVLEKVVDEILSANPKSIEDYKNGKLQAAGFLMGQVMKATKGQANPAVAKELIEAKLKD” and “HMQISYDVPNLIGKSYEEVMTDPSILGEHFTVVLGETKTDEDTDAGVILHQDPAADSKVQDEVTPITVTVS” are within 0.2 log units of each other in “soluble fraction (log2)” value: 0.124 for the first, 0.0589 for the second.

“HMQITDTEAIATTLDEIIAANPKEWERLKAGQEQLVKFFVGQVMRVTKGRANPQVVNDLLKERL” and “HMQITNEGQIKLVISEVLNENQEQKKQYLSGKEQVLGYLIGKVMQKTKGKANPKLVNDLMIKELS” are within 0.2 log units of each other in “soluble fraction (log2)” value: 0.186 for the first, 0.217 for the second.

Compared with “HMQITSTDEIEKMIDELIAANPEQTKQYQNGNHKVAGWFVGQMMKASKGKANPQMVNNLLQKKL”, “HMQITTVSPKNYAEAELIGQRFREGNPVVMDLSKLDSDLGQRLVDFASGLVFALNGTVERIAKKVFLLSP” is lower in “soluble fraction (log2)” value: 0.166 for the first, -0.748 for the second.

Compared with “HMQIVHKHLQLQPDQGALRAALYSHKAVVAEQVNEQGAINLEIKLAESDFLRLLKSSGLKLQDLVSLS”, “HMQKAQEYILVDIKGEVQTPGVYKLPVNSRVIDAIEASGGLTKKAVTTYINLSKTLKDENVIIINKKSEL” is higher in “soluble fraction (log2)” value: -1.16 for the first, -0.0717 for the second.

Going from “HMQKITPDNWTYIRSLIRQKWSPDQIDQWLKKHPDVGFTVSRETIYQYVKEDRQKDGDLYLSLRRAGKSY” to “HMQKLKINKYKDPKGEIRYYIASTIRNGNKSSTHNLLSLGKHSDLLKEHSDVEAYLKERLNEAMESGI”, the “soluble fraction (log2)” value rises from -1.11 to 0.307.

Going from “HMQKPDIEVDFAEGDMVVVTGGAWKDTAGVITGINMQKQTVTINVELFGRETPVEISFTEIKKA” to “HMQKVPDAFKAEQVQTLITRLGVSRAELARTLDVSLSTVNKWASGAVEPKGSALVLLKVLWMHGFKAL”, the “soluble fraction (log2)” value rises from -0.799 to 0.03.

First: HMQLDDDQKEELILKLIDSLDTTKKGAPLTELAREAAKSNIGESELEEITTSLLDKGLVYEPTIGKMKR
Second: HMQLDLNENEKIIFEILQNNKTMQLSNLKTQTELSNKGWDKAIKSLTKQGLAKVSKIDNELIVEFL
The “soluble fraction (log2)” value of the first is higher: 0.0111 for the first, -0.723 for the second.

“HMQLKFTDLRKEILRMIWEGHGPQKAYDLLNKLQQTNPSAKPATVYRALDFLIGNGFIHKVASLNAFVG” and “HMQLKKDTILSYIEEKLIDSYNSNKGFTTQEISVALNMQRTNVSAILNNLVKENKLVKTKGKPVRYFLSG” are within 0.2 log units of each other in “soluble fraction (log2)” value: -0.942 for the first, -1.02 for the second.

Going from “HMQLTPAQHAILAHALEHSDGKIVWFPDNIKGGARKKVLDGLLNRALITTDGTDWFVAAEGYDAMGR” to “HMQLTVAVLIKNISKGQVISQGFLGFEARPERQIRGAYTNISEVLGRKAKSNIAVGTILKARHLDT”, the “soluble fraction (log2)” value falls from 0.063 to -0.49.

“HMQNAMQKELIDAFQKAYPDLDITKIELVYGTYYEVEAMNSTTEFTYRYDQNSKTFILAEQDNADP” and “HMQNELAEARSQLAERKNIDQAKLILMKKRNISEPEAYKLLRSHAMQTNRRVAEVAESIITAESLLG” are within 0.2 log units of each other in “soluble fraction (log2)” value: -0.0395 for the first, 0.0831 for the second.
